Test: label from the status in PepcDB records

Sequence	protein production
MTQSAPEFKVLQSIAFLAVVLQSSLLYTMNQGNVLLEQSLIMGMLFNLAKFSAPAFIFIVGFHLIRHYTKQLVYKEYISEKATHLLIPYFFWSILYLLTTNDLITLQGGIKSLLLGTAAPHLWYVIMMFQIHLLFPLLCTLFYWFQKRTENKKDIYKYMTFFACLYFLLMWFSSHYIFNGEKLTSSTILHYTDRSFLFYSFYFVMGGIAAVPLKTWRLFVMKHIPLITILFFILFLFINYELFSFYGANSIHLTVSTYLKPSMFLYIVCEIIILYVLSIMIVQRRGFLYKTLRFIGNYTYGAYLAHLFFLQLCTKFLSLFTLQENTILYSLLLFVLTAIISISTMVICSTIPFHTWITGPSPTTKMKWTKVVFRKNHKKLFKPYI	failed
MIPPLQLSPLALVALLSLAAWAVVLLTRRRFWRCDQRLGQNTMAPGAAPAVVAVIPARDEAHTIGQTVRSLLNQSYPGRLVVVVVDDSSSDGTADAARAGAASVYDGPSRLIVVPGKPLEAGWSGKLWAVHQGLEVAAQAVPEARYVLLTDADIEHIPGNIARLVGKCERDGLVMASLMVKLRCESAWEHLLIPAFIFFFQKLYPFPLVNDPDRRVAGAAGGCILARRETLDAIGGVAAVRGALIDDCALAALLKEKGPIWLGLAGRTRSLRPNDELGDVWRMVARTAYVQLHHSPLRLIGAVIGMTLLYLVPPVSLIVGILSADFPAAVAGLVGWIGLAIIYRPTLHLYRRPPMAGLALPLAALLYTLMTIDSARRHYVGRGGEWKGRTYSGDASAGADPGPRSPAELAAHVEAITKASGTSFYGAMRILPRERRLAMYAIYAFCRVVDDIADGTAPEAEKRAELARWRDEIEALYARGGKGPEHPVARALDGPIRRFALPREDFLAVIEGMELDAGPRVRIRDITELEQYCDWVACAVGRLSNRIFGADPALSDDVARHTGLALQLTNILRDVVEDAERDRLYLPLSRLRAHGLKTTKDIDAVLVHPATAKVCAELASKAAAEFAEADRAQAACDRKTMRPAIIMKEVYRRIHAALMVRGWARLGEPVKVSRLTKLGIALRHGWL	failed
MSTPAPEQMLSAWQVGIAALLILVNGALSIGLGLGLERRLAWAAVRTVVQLLLIGFVLQWVFASAHWAVVLAVIALMTLIAGHATGSRGARDYAGLRLDGTLSVFGSTWLIGAIGLVAVLQARPWYTPQYAIPIMGMILGNTLTGVGLALERMTGELIATRDQVETLLALGGTRWEAARNAARAAVRAGMTPIINQMSVVGVVSLPGMMTGQVLAGQSPLEAVRYQIVIMFLLAASSGLGTVAAVLLAYRRLFSREHQLLSARIVQRAPGVH	failed
MGMASMSSGTESLRLCVFDLRRGQHEGQELDKILFFYPPDLTFSTQLSVIGLSEGLITFTRLFSPEAACEVIEAERHSHVFYEAEPDIWMVMIVEKNKEIEAVWRIDALRRVLKEVHSLFVMFQGSIRALLEKEPTGGLVRSHLYPFITDYLNDLFVGKKQQLPSFRDTLKERGTVQMLTLARDAALEVQSLVGVLDSCAGTVRCHSVILFHDLLVSTTLSPDDTVDLFAFSVMRLTTNALSSGTSSWSYLRKGSGSPQISSRSTTVPPLGSGGTLPSGNGSSTGRVIRPLQHDKWSKGKDGFLVTDIWGLDATPTILIQKTQESFYLLTYQYKSLTLVLLVPIAAIVNGELDISFVKQQVIENASTKILKVEEKLSKGWGGENAYHVSGYRYLLVDNDMEVSRASPPGKVATLAKESLLALNKLREEVDTEKNRSKQEKDMEICIRAKNNTWVIARLNRGKELYMALEKASETLLDATDSVQRFSNRYCSGAFPMD	failed
MEIKRILVSRTDKIGDLVLSIPSFFMLKKMYPNAELVVIVRKYNVDIVKNLPYIDRIVIIDEYSKAELLEKIAYFKADVFIALYNDSYIASLARASKAKIKIGPISKLSSFFTYNKGVLQKRSLSLKNEGQYNLDLVTKLDRKRFAILEHHHHHH	failed
MYVFTIGYFTIPANLFSLITSRYSAERKNVGGIVIINLIAGISSSLVFALLVPYYISLTKLDVPIYFYSAISLIILTYLLTVTNSIAQGRTPKIVGISALIFQVLRLVSGIIFMFIFNLSILAVILAYSIGYLAQVLFNLFFIRANLKIDFKVAFSAVRKAVVYIANYIQYILEASIVWITLGIVNSDLVVAYFESAIIVSNIQIGHKQYIQGLWLS	failed
MLRYILLKIDIGKEGTDMAAIQAKNGPTEKLSLFLLTWPIFLEVFLFMLMGIADTFMLSALSDDAVSGVGAANQYLHIAILVLEVIGNGAAIVVSQYLGSKRFMEASKISALAVTLNLIVGLVISTGFLLFSKHMMLAMNLQGDVLTYAQNYLSIVGGAIFLQAIINSLAAIIRVHGFTKQAMFISLGMNMIHIAGNYVLIFGKFGFPELGVQGAAISSAVSRLIALIVFFWLLYRVMEYRVKLQYYFTLSKEYIGKILKIGIPSAFEQVMYQACQIVFLYYATYLGTESLAARQYATNISMFTYLFAIAIGMGTAIIIGRLVGGGEKDEAYERLWKSVKWAIGVTLCMVALVITFRTQLMGLFTDNPYIIGLGASVLLLSVLLETGRTMNIVIINSLRAAGDAKYPVLIGAFSMVLMSLPLGYFFAFHLDMGLVGIWLAIAIDEWTRAIIMFFRWKSRAWERYALVKPEEQEENVSVQVQ	failed
MSLNRFTKTSQGRSWNTGNGSPDAICFAVDKPGIVVVGFAVYGGGGIHEYELEVLVDDSEHAGDSTHSHRWTSLELVKGTYTTDDSPSDIAEIRLDKVVPLKENVKYAVRLRNYGSRTANGDGGMTTVQCPDGVTFTFSTCSLSSNGTNQTRGQIPQILYYRSEEGHHHHHH	not failed
VYGSEVESKIIEFTIVGADEIIAEKLGISVGDFVYKIIRLRIIHSIPTIMEHTWMPIAVIPGVEASVLEESIYSYIQNKLGLKVGTSVVRVKGIRPDDKEKQFMNLTNQDFLMRVEQVAYLTDGRTFEYSYADHLPETFEFETVITAKSYKEA	not failed
MDVFDGLPDPIIVDILNKVGDVKTLLRCSSLSKRFNSLVPQSESLTLRLDHSVSDSPVVTSIFRSLFNGLVSLLSKPAKPITITTLSPSLPFKILSRFDRIRNLDVELPGGDVKLEKGAAVKWKAEFGKTLKSCVIVAFRSAGTVSSPVAVEGESDAEFVTGLKTRVVWTISALMAASSRHYLMREVVKEHEEIESLVMRDKEREGTVVMNEEGLKELRNTEARVEDEERVVKNKRSVVPSVRMSMRHAPSLKLKSGICLESATLVIVRPSGADFEVGDDAELATEAFVGDCMYGEAVVALLKCKKNALEMNSF	failed
MEWLFWFDARDYEFARQVLQRGTAVLYAVAFLSTLNQFPALLGERGLLPVPAFLDMARRLARPTLFRWRYSDALLKAVCWTGIGVSVLLVMGLPQTGPPWLPMLAFLTLWFLYMSIVNVGQTFYGFGWEILLLEAGFTVAFLGSNQCPPPTTILVLIVWLVFRLEFGAGMIKIRGGREWRDMTAMFYHHETQPMPGPLSRQAHLLPRPLHKVEVVGNHFAQLVVPFFLFAPQPLASIAAGIIIATQLWLVGTGNFAWLNWVAIVLAFAAVSDPVAHAVFPFIPLEWHQSTETPVWWLAVVVLVTVLLLVFSYQPLLNLFSSRQLMNASFNRWRLVNAYGAFGTVTKQRIEIVVEGTLDDAPDAPDERWLEYGFKGKPGDVRRLPRQWAPYHLRLDWLMWFLPLRTVHEDWFYIFLDRLLEADRRTLGLLRVDPFDGERPRWVRARSYLYRFASRAEFRETGERWVRVLLYDAIPPVSLSPRRRRLP	failed
MEPHAESAAAGQAAPPEKRRASWFTRMGRVVRFAGQRADEQKLLQVASSLTFTTVLAIVPMLAVVLSLFTAFPVFQEFRVALEDFLANSLMPPSVSDNIMDYLNQFARQATRLTAIGGAFLIVTSLLLIMTIDKTFNDIWQVTRQRPLPQRALVYWAVITLGPVVAGASLWATSFVARESLGLVRDVPEAVSVAISFIPLVLTGLGFAALFVVVPNRRVYWKDALVGGFGTAIVLELMKAGFAYYLTRFPAYTVIYGAFATLPIFLLWIYLSWLAVLFGATVAASAPLIRLGRWEINRHAGAPFIDALGVLRVLHAAQGSRPAGRSANALAKRLRLHHDELNAVLEALEDMELVARTAEQRWVLTCDPRTTTLEPVFDRFLLDRGQPRLRDEPEIAAVAAGVLGQGPDPTLADLAGVAQNTDIGPAAAVLQLETGKK	failed
MDFGLATTLYPDEYNYQTDAYSPTSSPVDLVQVIQQLHASLDPRTVFACYGKVLGQHLPIQGVRLQSEQHKLSWGKRYGISLKRQIICGGTPLTLQYQLLTPLTPSQSICLQEIEPLLLQPLLNAMQYQEMSMQAMFDALTGLGNRHYYSQSLKNAVARAQRKQGSVSLIVLDLDNFKKLNDKYGHKCGDYILKEFGDIIRSSIRSTDQAFRIGGDEFVVIVQGNIHAAGLLCERIVSATNTHASFHQFGVSCSLGAAEASETMEAEQLYEQADKTLYQAKASGRNCYKLSPTQLS	failed
